# Source: the supplement of paper PMC9112550, “Optimization of the antimicrobial peptide Bac7 by deep mutational scanning” (BMC Biology, 2022)
# Test system: Escherichia coli TOP10
# Assay: shrunken log2 fold change of peptide-encoding DNA abundance (4.5 h post-induction vs induction); higher = less antimicrobial activity (less host growth inhibition)
# Conditions: time post-induction: 4.5 h; library: site-saturation at positions 5, 18, 19, 20
# 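Note: peptides expressed intracellularly from a pBAD plasmid library in pooled LB shake-flask culture, induced with 0.3% L-arabinose, DNA abundance read by NGS, three biological replicates, DESeq2 with apeglm shrinkage.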
row,Sequence,shrunken log2 fold change
1,RRIRARPPRLPRPRPRPKNFPRP,0.251
2,RRIRARPPRLPRPRPRPQYIPRP,-0.566
3,RRIRRRPPRLPRPRPRPISLPRP,-0.224
4,RRIRIRPPRLPRPRPRPDKHPRP,-0.979
5,RRIRLRPPRLPRPRPRPIACPRP,0.0367
6,RRIRFRPPRLPRPRPRPPVEPRP,0.143
7,RRIRERPPRLPRPRPRPEPAPRP,0.428
8,RRIRMRPPRLPRPRPRPVKFPRP,0.0501
9,RRIRVRPPRLPRPRPRPVPIPRP,-0.0742
10,RRIRARPPRLPRPRPRPNIFPRP,0.0429
11,RRIRQRPPRLPRPRPRPAQYPRP,-0.0388
12,RRIRPRPPRLPRPRPRPKLKPRP,0.105
13,RRIRARPPRLPRPRPRPKLVPRP,0.106
14,RRIRKRPPRLPRPRPRPNPLPRP,0.0246
15,RRIRFRPPRLPRPRPRPYLSPRP,-1.86
16,RRIRYRPPRLPRPRPRPVYHPRP,-0.586
17,RRIRSRPPRLPRPRPRPVETPRP,0.00492
18,RRIRSRPPRLPRPRPRPLWIPRP,-0.497
19,RRIRSRPPRLPRPRPRPGIKPRP,-0.0207
20,RRIRRRPPRLPRPRPRPFMKPRP,-0.213
21,RRIRWRPPRLPRPRPRPPKVPRP,0.136
22,RRIRIRPPRLPRPRPRPWMFPRP,-0.261
23,RRIRQRPPRLPRPRPRPIYWPRP,0.0909
24,RRIRTRPPRLPRPRPRPKGCPRP,0.00952
25,RRIRKRPPRLPRPRPRPLERPRP,0.529

row,Sequence,shrunken log2 fold change
1,RRIRARPPRLPRPRPRPWLGPRP,0.417
2,RRIRDRPPRLPRPRPRPILCPRP,0.0322
3,RRIRKRPPRLPRPRPRPETDPRP,0.0366
4,RRIRKRPPRLPRPRPRPHLGPRP,-0.00957
5,RRIRSRPPRLPRPRPRPNLYPRP,-0.167
6,RRIRPRPPRLPRPRPRPHKLPRP,-0.109
7,RRIRCRPPRLPRPRPRPTQFPRP,0.167
8,RRIRLRPPRLPRPRPRPGVMPRP,0.0751
9,RRIRKRPPRLPRPRPRPGDQPRP,-0.00987
10,RRIRSRPPRLPRPRPRPLFFPRP,-0.172
11,RRIRGRPPRLPRPRPRPPQAPRP,1.58
12,RRIRTRPPRLPRPRPRPHEVPRP,-0.00804
13,RRIRLRPPRLPRPRPRPNSKPRP,-0.706
14,RRIRTRPPRLPRPRPRPMTVPRP,-0.294
15,RRIRARPPRLPRPRPRPCTNPRP,0.109
16,RRIRFRPPRLPRPRPRPFWAPRP,0.166
17,RRIRNRPPRLPRPRPRPMTQPRP,-0.249
18,RRIRGRPPRLPRPRPRPELDPRP,0.807
19,RRIRDRPPRLPRPRPRPLHMPRP,-0.0438
20,RRIRERPPRLPRPRPRPPCLPRP,-0.579
21,RRIRARPPRLPRPRPRPFTAPRP,-0.111
22,RRIRFRPPRLPRPRPRPYQDPRP,-0.151
23,RRIRHRPPRLPRPRPRPSRNPRP,-0.134
24,RRIRGRPPRLPRPRPRPQQWPRP,0.067
25,RRIRERPPRLPRPRPRPQGAPRP,0.169

row,Sequence,shrunken log2 fold change
1,RRIRQRPPRLPRPRPRPVMFPRP,-0.0919
2,RRIRSRPPRLPRPRPRPWVGPRP,-0.452
3,RRIRSRPPRLPRPRPRPAFAPRP,0.414
4,RRIRNRPPRLPRPRPRPNDMPRP,-0.457
5,RRIRERPPRLPRPRPRPSLIPRP,-2.26
6,RRIRIRPPRLPRPRPRPVESPRP,-0.0832
7,RRIRNRPPRLPRPRPRPWSLPRP,-0.0288
8,RRIRIRPPRLPRPRPRPGMPPRP,-0.0857
9,RRIRVRPPRLPRPRPRPEDQPRP,0.0356
10,RRIRHRPPRLPRPRPRPFYLPRP,-0.915
11,RRIRCRPPRLPRPRPRPKPNPRP,0.572
12,RRIRARPPRLPRPRPRPAIEPRP,0.396
13,RRIRTRPPRLPRPRPRPSWWPRP,0.125
14,RRIRDRPPRLPRPRPRPKCIPRP,-0.318
15,RRIRNRPPRLPRPRPRPDTGPRP,-0.0135
16,RRIRFRPPRLPRPRPRPLVWPRP,0.0758
17,RRIRCRPPRLPRPRPRPCIHPRP,-0.415
18,RRIRTRPPRLPRPRPRPCPCPRP,-0.366
19,RRIRGRPPRLPRPRPRPLIYPRP,0.105
20,RRIRFRPPRLPRPRPRPMHMPRP,-0.011
21,RRIRARPPRLPRPRPRPHMKPRP,-0.188
22,RRIRMRPPRLPRPRPRPLNYPRP,-0.124
23,RRIRFRPPRLPRPRPRPKEHPRP,-0.357
24,RRIRSRPPRLPRPRPRPRWEPRP,0.275
25,RRIRTRPPRLPRPRPRPFLAPRP,-0.0751

row,Sequence,shrunken log2 fold change
1,RRIRGRPPRLPRPRPRPNVMPRP,0.114
2,RRIRKRPPRLPRPRPRPEYHPRP,-0.0122
3,RRIRCRPPRLPRPRPRPQNSPRP,-0.194
4,RRIRLRPPRLPRPRPRPGAEPRP,0.505
5,RRIRKRPPRLPRPRPRPTRSPRP,0.831
6,RRIRSRPPRLPRPRPRPWEVPRP,0.188
7,RRIRWRPPRLPRPRPRPEHQPRP,0.263
8,RRIRPRPPRLPRPRPRPLHIPRP,0.656
9,RRIRQRPPRLPRPRPRPYHAPRP,-0.052
10,RRIRMRPPRLPRPRPRPHQVPRP,0.423
11,RRIRIRPPRLPRPRPRPLEWPRP,-0.0139
12,RRIRNRPPRLPRPRPRPIQYPRP,-0.377
13,RRIRIRPPRLPRPRPRPRQYPRP,-0.258
14,RRIRVRPPRLPRPRPRPSCPPRP,-0.245
15,RRIRQRPPRLPRPRPRPIFLPRP,0.805
16,RRIRNRPPRLPRPRPRPTCVPRP,-0.185
17,RRIRARPPRLPRPRPRPYVWPRP,0.053
18,RRIRLRPPRLPRPRPRPTETPRP,-0.021
19,RRIRQRPPRLPRPRPRPHNSPRP,-0.596
20,RRIRQRPPRLPRPRPRPKHDPRP,-0.121
21,RRIRPRPPRLPRPRPRPMEYPRP,-0.00176
22,RRIRVRPPRLPRPRPRPPPFPRP,0.375
23,RRIRYRPPRLPRPRPRPHGYPRP,-0.0146
24,RRIRARPPRLPRPRPRPKQRPRP,0.558
25,RRIRTRPPRLPRPRPRPLANPRP,-0.105

row,Sequence,shrunken log2 fold change
1,RRIRARPPRLPRPRPRPGKIPRP,0.0623
2,RRIRDRPPRLPRPRPRPLEYPRP,0.061
3,RRIRYRPPRLPRPRPRPHVVPRP,-0.261
4,RRIRHRPPRLPRPRPRPICNPRP,-0.422
5,RRIRHRPPRLPRPRPRPHENPRP,-0.0891
6,RRIRTRPPRLPRPRPRPSFDPRP,-0.365
7,RRIRIRPPRLPRPRPRPKVMPRP,-0.206
8,RRIRWRPPRLPRPRPRPTEVPRP,0.0181
9,RRIRARPPRLPRPRPRPLTIPRP,0.0223
10,RRIRSRPPRLPRPRPRPTTHPRP,0.0655
11,RRIRPRPPRLPRPRPRPYHNPRP,-0.785
12,RRIRCRPPRLPRPRPRPHIRPRP,-0.585
13,RRIRNRPPRLPRPRPRPWSFPRP,-0.538
14,RRIRNRPPRLPRPRPRPSYNPRP,-0.974
15,RRIRKRPPRLPRPRPRPRCRPRP,0.506
16,RRIRDRPPRLPRPRPRPFHAPRP,-0.108
17,RRIRDRPPRLPRPRPRPIQVPRP,-0.0916
18,RRIRERPPRLPRPRPRPICGPRP,0.0966
19,RRIRVRPPRLPRPRPRPEAEPRP,0.807
20,RRIRTRPPRLPRPRPRPMKNPRP,-0.146
21,RRIRHRPPRLPRPRPRPAWNPRP,0.287
22,RRIRLRPPRLPRPRPRPPDVPRP,-0.0115
23,RRIRERPPRLPRPRPRPHEYPRP,-0.0163
24,RRIRRRPPRLPRPRPRPKVAPRP,0.0861
25,RRIRVRPPRLPRPRPRPMVKPRP,-0.166
